Experimental data as given in article PMC7254967.

Key:
Assay in all cases: crystal structure
[1] = molecular target: F6, fused 4-oxalocrotonate tautomerase from Caballeronia arationis (Caballeronia arationis)
[2] = molecular target: Q0, fused 4-oxalocrotonate tautomerase from Bordetella trematum (Bordetella trematum)
[3] = molecular target: R7, fused 4-oxalocrotonate tautomerase from Burkholderia sp. RPE67 (Burkholderia sp. RPE67)
[4] = molecular target: W0, fused 4-oxalocrotonate tautomerase from Advenella mimigardefordensis DPN7 (Advenella mimigardefordensis DPN7)

For “F6, fused 4-oxalocrotonate tautomerase from Caballeronia arationis (enzyme)”, the stoichiometry N [1] was 3.
“Q0, fused 4-oxalocrotonate tautomerase from Bordetella trematum (enzyme)” gave a stoichiometry N [2] of 3.
With “R7, fused 4-oxalocrotonate tautomerase from Burkholderia sp. RPE67 (enzyme)” the stoichiometry N [3] was 3.
Work on “W0, fused 4-oxalocrotonate tautomerase from Advenella mimigardefordensis DPN7 (enzyme)” yielded a stoichiometry N [4] of 3.
